Test results published in publication PMC4260256, “A novel serine hydroxymethyltransferase from Arthrobacter nicotianae: characterization and improving catalytic efficiency by rational design” (BMC Biotechnology, 2014).

Tested on: NC(C(=O)O)C(O)c1ccccc1
Assay: purified protein
Conditions: pH 7.8; 40.0 °C

AnSHMT (Glutamicibacter nicotianae; I249L)
Km: 61.95 ± 0.13 mM | kcat/Km: 76.8 M⁻¹ s⁻¹
